In publication PMC8528726, “Kinetics of H2O2-driven catalysis by a lytic polysaccharide monooxygenase from the fungus Trichoderma reesei” (The Journal of Biological Chemistry, 2021):

Substrate: O=C1O[C@H]([C@@H](O)CO)C(O)=C1O
Test: purified protein
Assay type: biochemical, Trichoderma reesei
Details: 50 mM sodium acetate pH 5.0, 25 °C
[1] = ascorbate peroxidase reaction, co-substrate H2O2, true value extrapolated over [H2O2], ping-pong, insufficient AscA saturation, treat with caution

B1: TrAA9A (Trichoderma reesei QM6a) (protein)
chain: HGHINDIVINGVWYQAYDPTTFPYESNPPIVVGWTAADLDNGFVSPDAYQNPDIICHKNATNAKGHASVKAGDTILFQWVPVPWPHPGPIVDYLANCNGDCETVDKTTLEFFKIDGVGLLSGGDPGTWASDVLISNNNTWVVKIPDNLAPGNYVLRHEIIALHSAGQANGAQNYPQCFNIAVSGSGSLQPSGVLGTDLYHATDPGVLINIYTSPLNYIIPGPTVVSGLPTSVAQGSSAATATASATVPGGGSGPTSRTTTTARTTQASSRPSSTPPATTSAPAGGPTQTLYGQCGGSGYSGPTRCAPPATCSTLNPYYAQCLN
notes: saturated with copper
Which Km [1] does the source give for B1 here?
The Km was 140 µM.

What about the kcat [1] of the same protein?
The kcat was 2.1 s⁻¹.

What about the K0.5 (cellulose peroxygenase reaction, priming reductant, H2O2 and BMCC present, varied: cofactor) of the same protein?
The K0.5 was 0.1 mM.
